T1: mouse FcγRIIb (Mus musculus, UniProt P08101)
T1 construct: purchased R&D Systems, Inc
T1 sequence (P08101 30-330): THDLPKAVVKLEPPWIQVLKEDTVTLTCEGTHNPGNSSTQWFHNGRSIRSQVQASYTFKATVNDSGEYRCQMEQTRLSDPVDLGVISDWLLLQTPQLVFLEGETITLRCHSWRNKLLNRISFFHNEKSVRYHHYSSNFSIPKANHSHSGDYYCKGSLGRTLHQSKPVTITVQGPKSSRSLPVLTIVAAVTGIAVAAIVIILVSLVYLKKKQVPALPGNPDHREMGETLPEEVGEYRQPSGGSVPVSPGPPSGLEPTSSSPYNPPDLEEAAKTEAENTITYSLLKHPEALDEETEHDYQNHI

T2: mouse FcγRIII (Mus musculus, UniProt P08508)
T2 construct: purchased R&D Systems, Inc
T2 sequence (P08508 31-261): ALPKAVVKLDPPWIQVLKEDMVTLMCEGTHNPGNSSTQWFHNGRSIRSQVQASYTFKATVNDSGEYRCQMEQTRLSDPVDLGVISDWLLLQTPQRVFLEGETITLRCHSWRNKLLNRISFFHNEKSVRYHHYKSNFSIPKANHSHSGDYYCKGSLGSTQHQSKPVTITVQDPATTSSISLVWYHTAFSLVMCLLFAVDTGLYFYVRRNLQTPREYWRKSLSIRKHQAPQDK

T3: mouse FcγRI (Mus musculus, UniProt P26151)
T3 construct: purchased R&D Systems, Inc
T3 sequence (P26151 25-404): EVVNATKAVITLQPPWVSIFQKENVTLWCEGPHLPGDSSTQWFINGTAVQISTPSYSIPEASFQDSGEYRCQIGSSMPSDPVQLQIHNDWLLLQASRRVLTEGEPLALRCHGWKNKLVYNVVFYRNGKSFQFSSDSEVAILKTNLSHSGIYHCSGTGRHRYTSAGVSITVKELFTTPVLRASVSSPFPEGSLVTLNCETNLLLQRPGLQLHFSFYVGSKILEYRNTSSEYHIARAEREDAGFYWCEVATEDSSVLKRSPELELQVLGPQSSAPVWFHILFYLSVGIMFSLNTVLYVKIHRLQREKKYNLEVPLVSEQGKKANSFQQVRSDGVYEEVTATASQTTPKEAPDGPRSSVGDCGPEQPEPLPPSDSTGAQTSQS

T4: mouse FcγRIV (Mus musculus, UniProt A0A0B4J1G0)
T4 construct: purchased R&D Systems, Inc
T4 sequence (A0A0B4J1G0 21-249): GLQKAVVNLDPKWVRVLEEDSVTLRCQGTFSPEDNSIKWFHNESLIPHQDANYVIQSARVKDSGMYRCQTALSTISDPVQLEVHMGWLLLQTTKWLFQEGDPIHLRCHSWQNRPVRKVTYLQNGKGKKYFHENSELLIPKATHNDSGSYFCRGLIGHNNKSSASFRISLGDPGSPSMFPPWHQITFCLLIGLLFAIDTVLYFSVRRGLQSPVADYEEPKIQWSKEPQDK

B1: H7-1: core fucose-deficient rat/human chimeric antibody of anti-IL-5R rat monoclonal antibody H7, human IgG1 constant region (antibody, V domains shown)
VH: EVQLQQSGAELGKPGTSVKLSCKVSGYNIKNTYIHWVNQRPGKGLEWIGRIDPANGNPIYAEKFKNKATLTADTSSNTAYMQLSQLKSDDTAIYFCAMHRGHSMGPGPYVMDAWGQGASVTVSS
VL: DIQMTQSPASLSASLGETVTIECRTSEDIYNGLAWYQQKPGKSPQLLIYNANSLHTGVPSRFSGSGSGTQYSLKINSLQSEDVASYCCQQYSNYPFTFGSGTKLEIK
B2: H7-3: N-linked sugar chain-deficient H7 chimeric antibody, human IgG1 (N297A), lacking ADCC activity (antibody, V domains shown)
VH: B1 VH
VL: B1 VL
B3: H7 ratIgG2a: parent anti-IL-5R rat monoclonal antibody H7, rat IgG2a type (Hitoshi et al.) (antibody, V domains shown)
VH: B1 VH
VL: B1 VL

Experiments:
[1] = test system: rIL-33-induced pulmonary vascular wall thickening; assay: rIL-33-induced pulmonary arterial wall thickening, Heath-Edwards grading of lung tissue; type: in vivo, mouse; settings: IL-5+/+ mice given rIL-33; intrabronchial administration on days 7 and 14; compared with PBS group; FIG. 8
Procedure: Therefore, the degree of vascular wall thickening in IL-5^+/+ mice and IL-5^V/V mice was quantitatively graded on the basis of the Heath-Edwards grading system. On days 0, 7, and 14, 400 ng of rIL-33 was administered to each mouse. On day 21, lung tissues were resected and subjected to pathological observation to conduct tissue classification on the basis of the Heath-Edwards grading system.
In this grading system, evaluation was carried out according to grade 1: medial thickening, grade 2: intimal thickening, grade 3: advanced intimal thickening and medial thickening, and grade 4; plexiform lesion in addition to advanced intimal thickening and medial thickening.
In an experimental system similar to that of Example 3, in order to confirm the inhibitory effect of an anti-IL-5 neutralizing antibody on intimal thickening and medial thickening, 100 μg of an anti-IL-5 rat monoclonal antibody (NC17) (Hitoshi et al., Int. Immunol., 1991; 3; 135-139) or a rat IgG control antibody (manufactured by Sigma-Aldrich Co., LLC) was intraperitoneally administered to each IL-5^+/+ mouse for 3 consecutive days (a total of 3 times) from two days before rIL-33 administration day. Then, on day 21, lung tissues were resected and subjected to pathological observation to conduct tissue classification on the basis of the Heath-Edwards grading system. […]

mouse FcγRIIb = biological target: T1, mouse FcγRIIb; assay: Biacore steady state affinity for mouse FcγRIIb; type: binding; settings: Biacore T-200, Steady State Affinity mode
Procedure: (§1) The various H7 chimeric antibodies prepared in Example 8 and the parent antibody H7 rat IgG2a-type antibody were evaluated for their affinity for mouse FcγR using Biacore T-200 (manufactured by GE Healthcare Japan Corp.). An anti-tetra His mouse antibody (manufactured by Qiagen N.V.) was immobilized with 8000 RU as a guideline onto CM5 sensor chip using an amine coupling kit (all manufactured by GE Healthcare Japan Corp.). The coupling buffer used was 10 mM sodium acetate (pH 4.5). His tag-fused mouse FcγRI, IIb, III, and IV proteins (all manufactured by R&D Systems, Inc.) each dissolved at 2 μg/mL in HBS-EP(+) were captured as ligands at 2 μL/min for 30 sec. Then, each antibody serially diluted into concentrations of […] was added thereto as an analyte by the multicycle method. The flow rate was 5 μL/min, and the contact time and the dissociation time were both set to a condition of 240 sec. The analysis was carried out using Biacore T200 Evaluation software on the Steady State Affinity mode. A rise in binding activity against FcγRI and FcγRIV involved in in vivo mouse effector activity was observed by the alteration of the H7 constant region from rat IgG2a type to hIgG1 type.

[2] = test system: mouse IL-5Rα-expressing cell Y16; assay: Antigen binding activity of chimeric antibodies on Y16 cells by FCM; type: cell-based; settings: 0.6-10000 ng/mL antibody, 4° C. 60 min; FIG. 12
Procedure: The chimeric antibodies prepared in Example 8 were evaluated for their antigen binding activity using a mouse-derived cell line Y16 expressing IL-5R. The Y16 cells were washed with SM (staining medium containing 2% FCS, 0.05% NaN3, and 1 mM EDTA in PBS). Then, Mouse BD Fc Block (manufactured by Becton, Dickinson and Company) was added thereto at a concentration of 5 μg/mL, and the mixture was left standing at 4° C. for 30 min. The cells were inoculated at a cell number of 1×10^5 cells/well to a 96-well U-bottom plate, and each chimeric antibody adjusted to a final concentration of 10000, 2500, 625, 156, 39, 10, 2.4, or 0.6 ng/mL was added thereto, followed by reaction at 4° C. for 60 min. The rat/human chimeric control antibodies used were rtDNP-1 hIgG1 (DF) antibody (KM8808) and rtDNP-1 hIgG1 (N297A) antibody (KM6161). The nucleotide sequences and amino acid sequences of the variable regions of each isotype control antibody are shown in SEQ ID NOs: 29 to 34. After washing of the cells with SM, Goat F(ab′)2 Anti-Human IgG PE (γ chain specific) (manufactured by Southern Biotech) diluted 500-fold with SM was added thereto, followed by reaction at 4° C. for 60 min. After washing of the cells with SM, the cells were resuspended in 50 μL of SM. Fluorescence intensity was measured by FCM (flow cytometer FACS Canto II (manufactured by Becton, Dickinson and Company)). The data was analyzed using FlowJo 7.65 (manufactured by Tomy Digital Biology Co., Ltd.) to calculate a Geomean value at each concentration.

mouse FcγRIII = biological target: T2, mouse FcγRIII; assay: Biacore steady state affinity for mouse FcγRIII; type: binding; settings: Biacore T-200, Steady State Affinity mode
Procedure: as §1

Y16 cells = assay: ADCC activity against Y16 cells with human PBMC effector cells (LDH release); type: cell-based, mouse; settings: 4 hrs, 0.0001-1000 ng/mL (control antibodies 1000 ng/mL), FIG. 13
Procedure: The H7 recombinant chimeric antibodies prepared in Example 8 were evaluated for their ADCC activity against Y16 cells using frozen human peripheral blood mononuclear cells (PBMCs) (manufactured by AllCells) as effector cells. The frozen human PBMCs were shake-cultured (37° C., 5% CO2, overnight) in RPMI1640 medium containing 5% FBS. The Y16 cells (target cells) and the human PBMCs (effector cells) were washed with ADCC assay medium (RPIM1640 containing 5% dialyzed FBS) and adjusted to cell densities of 2×10^5 cells/mL and 3×10^6 cells/mL, respectively. The cells were washed twice with a medium and then suspended into cell densities of 4×10^5 cells/mL. Each chimeric antibody adjusted to a final concentration of 0.0001, 0.001, 0.01, 0.1, 1, 10, 100, or 1000 ng/mL, the target cells (2×10^4 cells/well), and the effector cells (5×10^5 cells/well) were added in this order at 50 μL/well to a 96-well U-bottom plate. The control antibodies used were the rtDNP-1 hIgG1 (DF) antibody (KM8808) and the rtDNP-1 hIgG1 (N297A) antibody (KM6161) of Example 10 adjusted to a final concentration of 1000 ng/mL. The plate was centrifuged (500 rpm, 5 min) and then left standing in an incubator (37° C., 5% CO2, 4 hrs). The plate was centrifuged (1500 rpm, 5 min) to recover a supernatant at 50 μL/well into a 96-well Flat-bottom plate (manufactured by Sumitomo Bakelite Co., Ltd.). Lactate dehydrogenase (LDH) activity in the supernatant was detected using CytoTox 96 Non-Radioactive Cytotoxicity Assay (manufactured by Promega Corp.). Absorbance at 490 nm was measured using a plate reader SPECTRA MAX 340 PC384 (manufactured by Molecular Devices, LLC). The ADCC activity (%) was calculated according to the following equation using background-corrected measurement values. Cytotoxicity=[[Absorbance of the sample]−[Absorbance derived from spontaneous release from the target cells and the effector cells]]/[[Absorbance derived from total release from the target cells]−[Absorbance derived from spontaneous release from the target cells]]

mouse FcγRI = biological target: T3, mouse FcγRI; assay: Biacore steady state affinity for mouse FcγRI; type: binding; settings: Biacore T-200, Steady State Affinity mode
Procedure: as §1

mouse FcγRIV = biological target: T4, mouse FcγRIV; assay: Biacore steady state affinity for mouse FcγRIV; type: binding; settings: Biacore T-200, Steady State Affinity mode
Procedure: as §1

Molecule	pulmonary vascular wall thickening (histological scores, Heath-Edwards grading) [1]	Affinity KD for mouse FcγRIIb (mouse FcγRIIb)	antigen binding activity (fluorescence intensity, Geomean) on Y16 cells [2]	Affinity KD for mouse FcγRIII (mouse FcγRIII)	ADCC activity against Y16 cells (Y16 cells)	Kd (mouse FcγRI)	Kd (mouse FcγRIV)	Affinity KD for mouse FcγRI (mouse FcγRI)	Affinity KD for mouse FcγRIV (mouse FcγRIV)
CC#CCC(C)[C@H](O)/C=C/[C@@H]1[C@H]2C/C(=C/CCCC(=O)O)C[C@H]2C[C@H]1O (some centres unmarked) [iloprost]	evident decrease in pulmonary vascular wall thickening was observed	–	–	–	–	–	–	–	–
B1	–	no binding	confirmed to react equivalently	no binding	exhibited antibody concentration-dependent ADCC activity	137 nM	89.5 nM	–	–
B2	–	no binding	confirmed to react equivalently	no binding	none	–	–	very weak	no binding
B3	–	no binding	–	no binding	–	–	–	very weak	very weak

Source: patent US10479836B2, “Method for treating pulmonary hypertension with interleukin-5 receptor antibody” (University of Toyama, priority 2015, dated 2019)
